{
  "source": "patent US20150140120",
  "about": "“STABILIZED APTAMERS TO PLATELET DERIVED GROWTH FACTOR AND THEIR USE AS ONCOLOGY THERAPEUTICS” (ARCHEMIX LLC, published 2015)",
  "key": {"PDGF-AA [1]": {"biological_target": "T1, PDGF-AA (rat, UniProt P28576 P28576:86-204)", "experiment": "filter; N.B., no significant binding", "conditions": "chain copies: 2 inferred; label: 5'-32P", "method": "(§1) Dot blot binding assays were performed throughout the selection to monitor the protein binding affinity of the pool. Trace ³²P-labeled RNA was combined with PDGF-AA and incubated at room temperature for 30 min in 1× SHMCK plus 0.1 mg/ml tRNA for a final volume of 20 μl. The reaction was added to a dot blot apparatus (Schleicher and Schuell Minifold-1 Dot Blot, Acrylic), assembled (from top to bottom) with nitrocellulose, nylon, and gel blot membranes. RNA that is bound to protein is captured on the nitrocellulose filter, whereas the non-protein bound RNA is captured on the nylon filter."}, "PDGF-AA short form [2]": {"biological_target": "T2, PDGF-AA short form (human, UniProt P04085-2 P04085-2:87-196)", "experiment": "filter; N.B., no significant binding", "conditions": "tags: Roche Biomedical (short form); chain copies: 2 inferred; label: 5'-32P", "method": "as §1"}, "PDGF-AA [3]": {"biological_target": "T1, PDGF-AA", "experiment": "filter; 1x SHMCK, 0.1 mg/mL tRNA, RT", "conditions": "chain copies: 2 inferred; label: 5'-32P", "method": "as §1"}, "PDGF-AA short form [4]": {"biological_target": "T2, PDGF-AA short form", "experiment": "filter; 1x SHMCK (Mg, Ca), 0.1 mg/mL tRNA, RT; 2-3 fold lower without tRNA", "conditions": "tags: Roche Biomedical (short form); chain copies: 2 inferred; label: 5'-32P", "method": "as §1"}, "PDGF-AA short form [5]": {"biological_target": "T2, PDGF-AA short form", "experiment": "filter; 1x SHMCK, 0.1 mg/mL tRNA, RT", "conditions": "tags: Roche Biomedical (short form); chain copies: 2 inferred; label: 5'-32P", "method": "as §1"}, "PDGF-BB [6]": {"biological_target": "T3, PDGF-BB (human, UniProt P01127 P01127:82-190)", "T3 sequence (P01127 82-190, one chain of several)": "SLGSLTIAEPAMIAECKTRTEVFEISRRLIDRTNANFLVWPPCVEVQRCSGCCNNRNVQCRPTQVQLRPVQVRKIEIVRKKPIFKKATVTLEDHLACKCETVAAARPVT", "experiment": "filter; dot blot", "conditions": "tags: PeproTech (ERK assay: R&D Systems); chain copies: 2 inferred", "source_text": "(§2) Protein-associated radio-label is captured on the nitrocellulose membrane while the balance of the radio-label is captured on the nylon membrane. The radio-label data is collected on a phosphorimaging plate."}, "VEGF": {"biological_target": "VEGF (UniProt P15692-4 P15692-4:27-191)", "sequence (P15692 other isoform, or with tags, fused parts or gaps)": "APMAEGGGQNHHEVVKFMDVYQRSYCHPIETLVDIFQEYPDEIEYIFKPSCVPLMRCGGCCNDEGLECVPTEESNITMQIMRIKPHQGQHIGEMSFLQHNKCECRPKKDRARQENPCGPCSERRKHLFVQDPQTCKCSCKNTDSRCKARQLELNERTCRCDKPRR", "experiment": "filter; dot blot", "conditions": "chain copies: 2", "source_text": "as §2"}, "PDGF-BB [7]": {"biological_target": "T3, PDGF-BB", "experiment": "filter; all-DNA ARC126 used in the chimera; dot blot", "conditions": "tags: PeproTech (ERK assay: R&D Systems); chain copies: 2 inferred", "source_text": "as §2"}, "PDGF-BB [8]": {"biological_target": "T3, PDGF-BB", "experiment": "filter; recognises VEGF but not PDGF", "conditions": "tags: PeproTech (ERK assay: R&D Systems); chain copies: 2 inferred"}},
  "data": [
    {"binder": "ARX33P1.D1 (ssRNA, 2'-F pyrimidines, 2'-OH purines) RNA: GGGAAAAGCGAAUCAUACACAAGAUCGCCAGGAGCAAAGUCACGGAGGAGUGGGGGUACGAAUGCUCCGCCAGAGACCAACCGAGAA", "values": [
      {"measurement": "binding result", "setting": "PDGF-AA [1]", "result": "no binding"},
      {"measurement": "binding result", "setting": "PDGF-AA short form [2]", "result": "no binding"}
    ]},
    {"binder": "ARX33P1.D2 (ssRNA, 2'-F pyrimidines, 2'-OH purines) RNA: GGGAAAAGCGAAUCAUACACAAGACCGGGAACUCGGAUUCUUCGCAUGUGGAUGCGAUCAGUAUGCUCCGCCAGAGACCAACCGAGAA", "values": [
      {"measurement": "Kd", "setting": "PDGF-AA [3]", "result": 51.7, "unit": "nM"},
      {"measurement": "Kd", "setting": "PDGF-AA short form [4]", "result": 104, "unit": "nM"}
    ]},
    {"binder": "ARX33P1.E10 (ssRNA, 2'-F pyrimidines, 2'-OH purines) RNA: GGGAAAAGCGAAUCAUACACAAGACCGGAAACUCGGAUUCUUCGCAUGUGGAUGCGAUCAGUAUGCUCCGCCAGAGACCAACCGAGAA", "values": [
      {"measurement": "Kd", "setting": "PDGF-AA [3]", "result": 47.1, "unit": "nM"},
      {"measurement": "Kd", "setting": "PDGF-AA short form [5]", "result": 133, "unit": "nM"}
    ]},
    {"binder": "ARX33P1.E5 (ssRNA, 2'-F pyrimidines, 2'-OH purines) RNA: GGGAAAAGCGAAUCAUACACAAGACCGGGAACUCGGAUUCUUCACAUGUGGAUGUGAUCAGUAUGCUCCGCCAGAGACCAACCGAGAA", "values": [
      {"measurement": "Kd", "setting": "PDGF-AA [3]", "result": 57.4, "unit": "nM"},
      {"measurement": "Kd", "setting": "PDGF-AA short form [5]", "result": 117, "unit": "nM"}
    ]},
    {"binder": "TK.131.012.B (mixed, DNA (PDGF part) with 2'-OMe VEGF part (ARC245 lacking first mA-mU pair); 3' inverted dT) mixed: CAGGCTACGUGCAGUUUGAGAAGUCGCGCACGTAGAGCATCAGAAATGATCCTG", "values": [
      {"measurement": "Kd", "setting": "PDGF-BB [6]", "result": "~10", "unit": "nM"},
      {"measurement": "Kd", "setting": "VEGF", "result": "~5", "unit": "nM"}
    ]},
    {"binder": "CAGGCTACGCGTAGAGCATCATGATCCTG (ssDNA, 3' inverted dT (SEQ ID NO: 8))", "note": "[deoxyARC126]", "values": [
      {"measurement": "Kd", "setting": "PDGF-BB [7]", "result": "~0.1", "unit": "nM"}
    ]},
    {"binder": "ARX33P1.E11 (ssRNA, 2'-F pyrimidines, 2'-OH purines) RNA: GGGAAAAGCGAAUCAUACACAAGAGAGUGGAGGAGGUAUGUAUGGUUUGUGCGUCUGGUGCGGUGCUCCGCCAGAGACCAACCGAGAA", "values": [
      {"measurement": "binding result", "setting": "PDGF-AA [1]", "result": "no binding"},
      {"measurement": "binding result", "setting": "PDGF-AA short form [2]", "result": "no binding"}
    ]},
    {"binder": "TK.131.012.A (mixed, DNA (PDGF part) with 2'-OMe VEGF part (ARC245); 3' inverted dT) mixed: CAGGCTACGAUGCAGUUUGAGAAGUCGCGCAUCGTAGAGCATCAGAAATGATCCTG", "values": [
      {"measurement": "Kd", "setting": "PDGF-BB [6]", "result": "~10", "unit": "nM"},
      {"measurement": "Kd", "setting": "VEGF", "result": "~10", "unit": "nM"}
    ]},
    {"binder": "AUGCAGUUUGAGAAGUCGCGCAU (XNA, all 2'-OMe; 3' inverted dT)", "note": "[ARC245]", "values": [
      {"measurement": "Kd", "setting": "VEGF", "result": "~2", "unit": "nM"},
      {"measurement": "binding result", "setting": "PDGF-BB [8]", "result": "no binding"}
    ]}
  ]
}
